Data published in PMC7181634, “Enhanced succinic acid production by Mannheimia employing optimal malate dehydrogenase” (Nature Communications, 2020).
Positions count from the first letter of the chain named. In names and notes the source's numbering stands.

B1: MsMDH ([Mannheimia] succiniciproducens MBEL55E) (protein)
chain: MKVAVLGAAGGIGQALALLLKLQLPAGSSLSLYDVAPVTPGVAKDLSHIPTDVVVEGFAGTDPSEALKGADIVLISAGVARKPGMTRADLFGVNAGIIRSLTEKVAEQCPKACVGIITNPVNAMVAIAAEVLKKAGVYDKRKLFGITTLDILRAETFIAELKGLDPTRVTIPVIGGHSGVTILPLLSQVQNVEWSSEEEIIALTHRIQNAGTEVVEAKAGGGSATLSMAQAAARFALALVKASQGAKVVECAYVEGDGKYARFFAQPVRLGTEGVEEYLTLGKLSAFEEKALNAMLETLQGDIKSGEDFING
notes: full length, C-terminal 6xHis (pET30a), expressed in E. coli BL21(DE3), Ni-NTA, ion exchange and size exclusion
B2: MsMDH ([Mannheimia] succiniciproducens MBEL55E; G11Q) (protein)
chain: B1 chain with G11Q
notes: as for B1
B3: CgMDH (Corynebacterium glutamicum ATCC 13032) (protein)
chain: MNSPQNVSTKKVTVTGAAGQISYSLLWRIANGEVFGTDTPVELKLLEIPQALGGAEGVAMELLDSAFPLLRNITITADANEAFDGANAAFLVGAKPRGKGEERADLLANNGKIFGPQGKAINDNAADDIRVLVVGNPANTNALIASAAAPDVPASRFNAMMRLDHNRAISQLATKLGRGSAEFNNIVVWGNHSATQFPDITYATVGGEKVTDLVDHDWYVEEFIPRVANRGAEIIEVRGKSSAASAASSAIDHMRDWVQGTEAWSSAAIPSTGAYGIPEGIFVGLPTVSRNGEWEIVEGLEISDFQRARIDANAQELQAEREAVRDLL
notes: as for B1

Assays:
[1] = substrate: O=C(O)CC(=O)C(=O)O; assay: purified protein; format: biochemical, [Mannheimia] succiniciproducens; conditions: pH 7.0, 0.1 M Tris-HCl, NADH co-substrate, room temperature
[2] = substrate: O=C(O)CC(=O)C(=O)O; assay: purified protein; format: biochemical, Corynebacterium glutamicum; conditions: pH 7.0, 0.1 M Tris-HCl, NADH co-substrate, room temperature

Protein | Km [1] [µM] | kcat [1] [s⁻¹] | kcat/Km [1] [M⁻¹ s⁻¹] | Km [2] [µM] | kcat [2] [s⁻¹] | kcat/Km [2] [M⁻¹ s⁻¹]
B1 | 18.2 ± 10.5 | 376 ± 119 | 2.07e+07 ± 4.5e+06 | – | – | –
B2 | 103.5 ± 25.9 | 927 ± 152 | 9e+06 ± 400000 | – | – | –
B3 | – | – | – | 46.1 ± 7.3 | 920 ± 77 | 1.99e+07 ± 300000
